In the test the target is HIV-1 Env of virus AT1 with the I371V mutation (HIV-1).

In turn, VRC01 (antibody) came in with an IC50 of neutralisation of the virus in TZM-bl cells (luciferase reporter) of 0.0724 µg/mL.

Values taken from paper PMC5524822.
